Reference: paper PMC10611921, “Assessing the dynamics and macromolecular interactions of the intrinsically disordered protein YY1” (Bioscience Reports, 2023)

Tests used:
[1] = target: T1, FOXP2 FHD (UniProt O15409 504-594); assay: EMSA; single complex, no YY1; Anisotropy: 10 mM HEPES pH 7.5, 100 mM NaCl, 20 C; EMSA: 0.5 uM DNA, 20% (v/v) of binding buffer (10 mM HEPES pH 7.5, 1 mM MgCl2, 100 mM KCl, 10% glycerol, 0.1); details: protein: recombinant; tags: His6 removed with thrombin
T1 sequence: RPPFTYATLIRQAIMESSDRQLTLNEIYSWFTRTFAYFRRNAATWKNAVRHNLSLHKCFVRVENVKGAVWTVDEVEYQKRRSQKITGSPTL

[2] = target: T1, FOXP2 FHD; assay: EMSA; control gel; no specific binding; Anisotropy: 10 mM HEPES pH 7.5, 100 mM NaCl, 20 C; EMSA: 0.5 uM DNA, 20% (v/v) of binding buffer (10 mM HEPES pH 7.5, 1 mM MgCl2, 100 mM KCl, 10% glycerol, 0.1); details: protein: recombinant; tags: His6 removed with thrombin
[3] = target: YY1 labelled with NTA ATTO 550 (UniProt P25490 1-414); assay: fluorescence anisotropy; apparent KD; 0.2 uM labelled YY1, DNA titrated; 100 mM NaCl; Anisotropy: 10 mM HEPES pH 7.5, 100 mM NaCl, 20 C; EMSA: 0.5 uM DNA, 20% (v/v) of binding buffer (10 mM HEPES pH 7.5, 1 mM MgCl2, 100 mM KCl, 10% glycerol, 0.1); details: protein: recombinant; tags: N-terminal His6 (NTA ATTO 550 label)
YY1 labelled with NTA ATTO 550, sequence (P25490 whole entry): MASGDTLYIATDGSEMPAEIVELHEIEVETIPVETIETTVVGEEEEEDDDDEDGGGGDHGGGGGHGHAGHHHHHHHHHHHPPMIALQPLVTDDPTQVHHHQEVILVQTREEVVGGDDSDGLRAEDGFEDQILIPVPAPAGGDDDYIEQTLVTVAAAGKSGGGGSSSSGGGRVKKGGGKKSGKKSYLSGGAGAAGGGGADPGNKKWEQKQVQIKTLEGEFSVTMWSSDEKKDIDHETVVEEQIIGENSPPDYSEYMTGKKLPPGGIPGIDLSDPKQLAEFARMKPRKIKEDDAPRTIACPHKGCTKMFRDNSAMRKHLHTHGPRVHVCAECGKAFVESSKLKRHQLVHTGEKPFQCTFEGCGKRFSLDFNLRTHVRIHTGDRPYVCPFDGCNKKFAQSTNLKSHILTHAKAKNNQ

[4] = target: T2, Yin Yang 1 (YY1), full-length, N-terminal hexahistidine tag (UniProt P25490 1-414, NTA ATTO 550 on the N-terminal hexahistidine tag (the labelled copy in the anisotropy assays)); assay: fluorescence polarisation; fluorescence anisotropy; unlabelled FOXP2 FHD titrated into 0.2 μM YY1 labelled with NTA ATTO 550 in the presence of 10 μM background AAV P5 promoter DNA (YY1 specific); 100 mM NaCl, 10 mM HEPES pH 7.5, 20°C; details: both partners purified
T2 construct: YY1 (Yin Yang 1), full-length construct; A heterogeneous mixture of oligomers in solution; In the anisotropy assays 0.2 μM YY1 carried NTA ATTO 550 on the His tag; the titrated YY1 was unlabelled; also called Ying Yang 1; source: T7 cells (Genscript), pET-11A plasmid, purified (IMAC on cobalt, size exclusion chromatography); not shown: His6, N-terminal, kept
T2 sequence (P25490 whole entry): as above

[5] = target: T2, Yin Yang 1 (YY1), full-length, …; assay: fluorescence polarisation; fluorescence anisotropy; unlabelled FOXP2 FHD titrated into 0.2 μM YY1 labelled with NTA ATTO 550; 300 mM NaCl, 10 mM HEPES pH 7.5, 20°C; single site model, apparent KD; details: both partners purified
[6] = target: T2, Yin Yang 1 (YY1), full-length, …; assay: fluorescence polarisation; fluorescence anisotropy; unlabelled FOXP2 FHD titrated into 0.2 μM YY1 labelled with NTA ATTO 550; 100 mM NaCl, 10 mM HEPES pH 7.5, 20°C; single site model, apparent KD; details: both partners purified
[7] = target: T2, Yin Yang 1 (YY1), full-length, …; assay: fluorescence polarisation; fluorescence anisotropy; unlabelled FOXP2 FHD titrated into 0.2 μM YY1 labelled with NTA ATTO 550; 500 mM NaCl, 10 mM HEPES pH 7.5, 20°C; single site model, apparent KD; details: both partners purified

B1: CNTNAP2 DNA (dsDNA)
DNA 1: TTTGATTGTTTACTTTGTTC
DNA 2: GAACAAAGTAAACAATCAAA
- binding result [1]: binds

B2: AAV P5 DNA (dsDNA)
DNA 1: AGGGTCTCCATTTTGAAGCG
DNA 2: CGCTTCAAAATGGAGACCCT
- binding result [2]: no binding
- Kd [3]: 3.7 ± 0.4 µM

B3: FOXP2 forkhead domain (FHD) (domain or fragment, UniProt O15409 504-594, looked up)
chain: RPPFTYATLIRQAIMESSDRQLTLNEIYSWFTRTFAYFRRNAATWKNAVRHNLSLHKCFVRVENVKGAVWTVDEVEYQKRRSQKITGSPTL
notes: also called FOXP2 FHD; forkhead box P2 forkhead domain; source: T7 cells (Genscript), pET-11A plasmid, purified (IMAC on nickel; His-tag removed with thrombin, benzamidine and HiTrap columns); not shown: His6, N-terminal, cleaved
- Kd [4]: 58 ± 6 µM
- Kd [5]: ~28 µM
- Kd [6]: ~73 µM
- Kd [7]: ~67 µM
